Target: human CD11b/CD18 (alphaM beta2 integrin) on transfected CHO cells (human, UniProt P11215 17-1152; P05107 23-769)
Experiment: FACS competition on CHO-CD11b cells, competitor CyaA-biotin

B1: CyaA 373-1706 (hemolytic moiety) (other)
chain: MGCGNSKFSPDVLETVPASPGLRRPSLGAVERQDSGYDSLDGVGSRSFSLGEVSDMAAVEAAELEMTRQVLHAGARQDDAEPGVSGASAHWGQRALQGAQAVAAAQRLVHAIALMTQFGRAGSTNTPQEAASLSAAVFGLGEASSAVAETVSGFFRGSSRWAGGFGVAGGAMALGGGIAAAVGAGMSLTDDAPAGQKAAAGAEIALQLTGGTVELASSIALALAAARGVTSGLQVAGASAGAAAGALAAALSPMEIYGLVQQSHYADQLDKLAQESSAYGYEGDALLAQLYRDKTAAEGAVAGVSAVLSTVGAAVSIAAAASVVGAPVAVVTSLLTGALNGILRGVQQPIIEKLANDYARKIDELGGPQAYFEKNLQARHEQLANSDGLRKMLADLQAGWNASSVIGVQTTEISKSALELAAITGNADNLKSVDVFVDRFVQGERVAGQPVVLDVAAGGIDIASRKGERPALTFITPLAAPGEEQRRRTKTGKSEFTTFVEIVGKQDRWRIRDGAADTTIDLAKVVSQLVDANGVLKHSIKLDVIGGDGDDVVLANASRIHYDGGAGTNTVSYAALGRQDSITVSADGERFNVRKQLNNANVYREGVATQTTAYGKRTENVQYRHVELARVGQVVEVDTLEHVQHIIGGAGNDSITGNAHDNFLAGGSGDDRLDGGAGNDTLVGGEGQNTVIGGAGDDVFLQDLGVWSNQLDGGAGVDTVKYNVHQPSEERLERMGDTGIHADLQKGTVEKWPALNLFSVDHVKNIENLHGSRLNDRIAGDDQDNELWGHDGNDTIRGRGGDDILRGGLGLDTLYGEDGNDIFLQDDETVSDDIDGGAGLDTVDYSAMIHPGRIVAPHEYGFGIEADLSREWVRKASALGVDYYDNVRNVENVIGTSMKDVLIGDAQANTLMGQGGDDTVRGGDGDDLLFGGDGNDMLYGDAGNDTLYGGLGDDTLEGGAGNDWFGQTQAREHDVLRGGDGVDTVDYSQTGAHAGIAAGRIGLGILADLGAGRVDKLGEAGSSAYDTVSGIENVVGTELADRITGDAQANVLRGAGGADVLAGGEGDDVLLGGDGDDQLSGDAGRDRLYGEAGDDWFFQDAANAGNLLDGGDGRDTVDFSGPGRGLDAGAKGVFLSLGKGFASLMDEPETSNVLRNIENAVGSARDDVLIGDAGANVLNGLAGNDVLSGGAGDDVLLGDEGSDLLSGDAGNDDLFGGQGDDTYLFGVGYGHDTIYESGGGHDTIRINAGADQLWFARQGNDLEIRILGTDDALTVHDWYRDADHRVEIIHAANQAVDQAGIEKLVEAMAQYPDPGAAAAAPPAARVPDTLMQSLAVNWR
binding result: binds
